Literature values, collected in publication PMC3218054, “Characterisation of the Interaction of the C-Terminus of the Dopamine D2 Receptor with Neuronal Calcium Sensor-1” (PLoS ONE, 2011).
Entries after “also recorded” stand apart in the source; their conditions may differ.

System: NCS-1
Details: D3 receptor
Excerpt: Ultimately, it would be important to understand how NCS-1 interacts with the intact receptor. We, therefore, constructed a model of the NCS-1-D3 receptor complex using the AIR derived from the D2SR peptide-NCS-1 chemical mapping data, and taking into consideration that many of the hydrophobic residues at the C-terminus of D3 receptor are involved in intramolecular interactions with helix I of the receptor [45]. HADDOCK docking produ ... || Biophysical analysis of NCS-1 was consistent with the protein being monomeric in the presence or absence of Ca ^2+.

B1: D3 receptor: dopamine D3 receptor (PDB Accession 3PBL), docked onto NCS-1 (protein, UniProt P35462 1-400, looked up)
D(3) dopamine receptor: MASLSQLSGHLNYTCGAENSTGASQARPHAYYALSYCALILAIVFGNGLVCMAVLKERALQTTTNYLVVSLAVADLLVATLVMPWVVYLEVTGGVWNFSRICCDVFVTLDVMMCTASILNLCAISIDRYTAVVMPVHYQHGTGQSSCRRVALMITAVWVLAFAVSCPLLFGFNTTGDPTVCSISNPDFVIYSSVVSFYLPFGVTVLVYARIYVVLKQRRRKRILTRQNSQCNSVRPGFPQQTLSPDPAHLELKRYYSICQDTALGGPGFQERGGELKREEKTRNSLSPTIAPKLSLEVRKLSNGRLSTSLKLGPLQPRGVPLREKKATQMVAIVLGAFIVCWLPFFLTHVLNTHCQTCHVSPELYSATTWLGYVNSALNPVIYTTFNIEFRKAFLKILSC
ability to bind NCS-1: shown to bind to the dopamine D3 receptor and to regulate its internalisation; also recorded: can also bind to NCS-1
